Reference: PMC7641752, “A hand-off of DNA between archaeal polymerases allows high-fidelity replication to resume at a discrete intermediate three bases past 8-oxoguanine”
Blank lines part the entries; values can stand above or below the binder they belong to.

Tests used:
[1] = target: T1, PCNA123 (Saccharolobus solfataricus) (UniProt P57766)
T1 sequence 1: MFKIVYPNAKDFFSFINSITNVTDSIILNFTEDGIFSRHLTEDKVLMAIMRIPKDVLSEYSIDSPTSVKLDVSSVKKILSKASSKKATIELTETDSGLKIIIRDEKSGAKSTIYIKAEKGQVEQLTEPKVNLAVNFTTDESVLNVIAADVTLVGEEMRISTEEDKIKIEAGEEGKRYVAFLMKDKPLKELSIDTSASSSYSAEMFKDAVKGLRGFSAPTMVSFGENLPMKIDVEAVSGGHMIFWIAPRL
T1 sequence 2: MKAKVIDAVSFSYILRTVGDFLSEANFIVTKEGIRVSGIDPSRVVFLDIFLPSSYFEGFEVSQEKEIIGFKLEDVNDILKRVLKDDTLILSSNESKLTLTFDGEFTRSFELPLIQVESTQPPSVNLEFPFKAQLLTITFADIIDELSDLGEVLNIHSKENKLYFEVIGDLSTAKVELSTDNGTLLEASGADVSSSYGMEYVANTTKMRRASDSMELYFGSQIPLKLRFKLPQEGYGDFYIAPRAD
T1 sequence 3: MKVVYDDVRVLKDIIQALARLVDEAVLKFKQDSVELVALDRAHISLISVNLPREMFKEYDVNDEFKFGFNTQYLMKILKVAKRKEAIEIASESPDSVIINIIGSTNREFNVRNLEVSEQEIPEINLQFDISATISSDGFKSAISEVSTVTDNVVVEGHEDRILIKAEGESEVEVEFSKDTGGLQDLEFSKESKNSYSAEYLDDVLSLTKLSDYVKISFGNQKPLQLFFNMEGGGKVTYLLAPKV

[2] = target: T2, PolY (Y-family TLS DNA polymerase) (Saccharolobus/Sulfolobus solfataricus …, UniProt Q97W02 1-352); test: fluorescence anisotropy; Fluorescence anisotropy, 4 nM DNA, room temperature, 90 s incubation, Hill fit, mean of three titrations; binding buffer not stated in the material (as in ref 38); conditions: protein: recombinant, label: 5'-FAM on primer (strand 1), primer-template
T2 sequence: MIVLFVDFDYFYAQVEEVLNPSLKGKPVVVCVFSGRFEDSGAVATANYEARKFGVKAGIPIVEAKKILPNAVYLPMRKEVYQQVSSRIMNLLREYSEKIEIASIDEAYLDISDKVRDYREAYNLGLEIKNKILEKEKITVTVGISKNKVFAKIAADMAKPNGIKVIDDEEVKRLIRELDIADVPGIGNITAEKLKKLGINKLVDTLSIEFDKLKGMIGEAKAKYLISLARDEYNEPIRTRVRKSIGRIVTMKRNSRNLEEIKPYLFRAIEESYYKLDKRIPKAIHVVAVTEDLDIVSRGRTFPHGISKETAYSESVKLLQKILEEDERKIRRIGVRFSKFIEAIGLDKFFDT

[3] = target: T1, PCNA123 (Saccharolobus solfataricus); remark: listed apart in the source
[4] = 5' overhang 30 nt on template (strand 2)
[5] = 5' overhang 26 nt on template (strand 2)

observed rate constant (kobs) of extension from primer p26 (+3), Scheme vi: PolB1 added at initiation to DNA pre-loaded with PCNA123 and RFC; rapid quench, 40°C [1]: 2.1 s⁻¹
B1: PolB1 (enzyme)
chain: MTKQLTLFDIPSSKPAKSEQNTQQSQQSAPVEEKKVVRREWLEEAQENKIYFLLQVDYDGKKGKAVCKLFDKETQKIYALYDNTGHKPYFLVDLEPDKVGKIPKIVRDPSFDHIETVSKIDPYTWNKFKLTKIVVRDPLAVRRLRNDVPKAYEAHIKYFNNYMYDIGLIPGMPYVVKNGKLESVYLSLDEKDVEEIKKAFADSDEMTRQMAVDWLPIFETEIPKIKRVAIDIEVYTPVKGRIPDSQKAEFPIISIALAGSDGLKKVLVLNRNDVNEGSVKLDGISVERFNTEYELLGRFFDILLEYPIVLTFNGDDFDLPYIYFRALKLGYFPEEIPIDVAGKDEAKYLAGLHIDLYKFFFNKAVRNYAFEGKYNEYNLDAVAKALLGTSKVKVDTLISFLDVEKLIEYNFRDAEITLQLTTFNNDLTMKLIVLFSRISRLGIEELTRTEISTWVKNLYYWEHRKRNWLIPLKEEILAKSSNIRTSALIKGKGYKGAVVIDPPAGIFFNITVLDFASLYPSIIRTWNLSYETVDIQQCKKPYEVKDETGEVLHIVCMDRPGITAVITGLLRDFRVKIYKKKAKNPNNSEEQKLLYDVVQRAMKVFINATYGVFGAETFPLYAPAVAESVTALGRYVITSTVKKAREEGLTVLYGDTDSLFLLNPPKNSLENIIKWVKTTFNLDLEVDKTYKFVAFSGLKKNYFGVYQDGKVDIKGMLVKKRNTPEFVKKVFNEVKELMISINSPNDVKEIKRKIVDVVKGSYEKLKNKGYNLDELAFKVMLSKPLDAYKKNTPQHVKAALQLRPFGVNVLPRDIIYYVKVRSKDGVKPVQLAKVTEIDAEKYLEALRSTFEQILRAFGVSWDEIAATMSIDSFFSYPSKGNS

B2: p22-FAM/t52Und (-1, undamaged) (dsDNA)
DNA 1: GCGAGGCGAGCGCGAGCGATAC
DNA 2: CGTCCAACATGAAGCTTGCACTCGATCGCGGTATCGCTCGCGCTCGCCTCGC
Kd [2, 4]: 16.1 ± 0.4 nM

B3: p26-FAM/t528 (+3, 8-oxoG) (dsDNA)
DNA 1: GCGAGGCGAGCGCGAGCGATACCGCG
DNA 2: B2 DNA 2
modifications: 8-oxoguanine at position 30 from 5' of strand 2 (23 from 3' end), written as G
Kd [2, 5]: 13 ± 0.4 nM

B4: p22-FAM/t528 (-1, 8-oxoG) (dsDNA)
DNA 1: GCGAGGCGAGCGCGAGCGATAC
DNA 2: B2 DNA 2
modifications: 8-oxoguanine at position 30 from 5' of strand 2 (23 from 3' end), written as G
Kd [2, 4]: 25.9 ± 8.2 nM

B5: p26-FAM/t52Und (+3, undamaged) (dsDNA)
DNA 1: GCGAGGCGAGCGCGAGCGATACCGCG
DNA 2: B2 DNA 2
Kd [2, 5]: 31.2 ± 3.5 nM

observed rate constant (kobs) of 8-oxoG lesion bypass from primer p22 (-1), Scheme ii: PolY added at initiation to DNA pre-loaded with PCNA123 and RFC; rapid quench, 40°C [3]: 0.22 s⁻¹
B6: PolY (enzyme)
chain: T2 sequence
